Test results: patent US20230322910A1 (published 2023)

What was measured:
[1] = target: T1, PfRipr5 (fragment of Ripr, positions 720-934 of SEQ ID NO: 17), made by wheat germ cell-free synthesis with … (UniProt O97302 720-934); assay: SPR
T1 chain: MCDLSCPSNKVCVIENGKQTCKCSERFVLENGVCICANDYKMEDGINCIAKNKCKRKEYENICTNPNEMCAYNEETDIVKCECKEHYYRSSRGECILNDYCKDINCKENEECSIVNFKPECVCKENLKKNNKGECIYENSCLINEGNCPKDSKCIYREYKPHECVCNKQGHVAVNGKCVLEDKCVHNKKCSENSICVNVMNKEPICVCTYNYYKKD

[2] = target: 4B7; assay: SPR; U-value 95, negligible response

B1: mouse monoclonal antibody 29B11 (antibody, V domains shown)
VH: EVQLQQSGPELMKPGASVKISCKTSGYTFTEYTMHWVKQSHGKSLEWIGGIDPNNGITIYDQKFKGKATLTVDKSSSTAYMELRSLTSEDSAVYYCTRYYYGHYFDYWGQGTTLTVSS
VL: DVLMTQTPLSLPVSLGDQASISCRSSQSIVHNNGHTYLEWYLQKPGQSPKLLIYKVSNRFSGVPDRFSGSGSGTDFTLKISRVEAEDLGIYYCFQDSHVPWTFGGGTKLEIKR
Question: For B1, which Kd [1] is on record?
Answer: 2.19 nM

B2: mouse monoclonal antibody 26H4 (antibody, V domains shown)
VH: EVQLQQSGPELVKPGASVKISCKTSGYTFTEYTMHWVKQSHGKSLEWIGGIDPNNGVTIYNQNFKGKATLTVDKSSSTAYMELRSLTSEDSAVYHCARYYYGHYFDYWGQGTTLTVSS
VL: DVLMTQTPLSLPVSLGDQASISCRSSQSIVHSNGNTYLEWYLQKPGQSPKLLIYKVSNRFSGVPDRFSGSGSGTDFTLKISRVEAEDLGVYYCFQNSHVTWTFGGGTKLEIKR
Question: For B2, which Kd [1] is on record?
Answer: 0.69 nM

B3: - (other)
chain: MCDLSCPSNKVCVIENGKQTCKCSERFVLENGVCICANDYKMEDGINCIAKNKCKRKEYENICTNPNEMCAYNEETDIVKCECKEHYYRSSRGECILNDYCKDINCKENEECSIVNFKPECVCKENLKKNNKGECIYENSCLINEGNCPKDSKCIYREYKPHECVCNKQGHVAVNGKCVLEDKCVHNKKCSENSICVNVMNKEPICVCTYNYYKKD
Question: With B3 as the binder, how does the Kd [2] read?
Answer: 0.0693 nM
